Test results as given in publication PMC4767940 (PLoS ONE, 2016).

Columns and labels:
[1] = target: H-2D^b on the surface of RMA-S cells (mouse (endogenous in RMA/S)); experiment: flow cytometry on cells
CD8+ T cells = conditions: cited from earlier work

Compound | half-life of the peptide on H-2D^b [1] [h] | formation of memory CD8+ T cell responses (CD8+ T cells)
GP33-41 peptide (wildtype GP33 epitope of LCMV) | > 5 | –
O=CC[C@@H](O)[C@H](O)[C@H](O)CO [2-deoxyglucose] | – | augments the formation of memory CD8+ T cell responses
